# Tests used:
# [1] = Controlled shaking of insulin solutions in 2-week minipumps equipped with small diameter catheters; assay type: physicochemical; conditions: shaken 8 days at 37°
# Method: Minipumps (Alzet Osmotic Minipump No. 2002, Alza Corporation, Palo Alto, Calif.) that release their contents ([…]) at a constant rate ([…]) over a minimum of 14 days were filled with insulin or amino acid-insulin solutions. The minipumps were weighed before and after filling to determine the initial inner fluid volume. A 5 cm vinyl catheter (Iv. soft medical polyvinyl tubing; i.D.=0.023 inch; Bolab Inc. Co., Derry, N.H.) was attached to the tubes' exterior beyond their flanges.
# Acid and neutral insulin solutions were prepared with and without glutamic or aspartic acids as described in Example I except insulin concentrations were 120 U/ml (approximately 5 mg/ml). Glutamic and aspartic acids were added to a concentration of 7 mg/ml. The final pH's of the amino acid insulin solutions were 3.3-3.5.
# Pumps with attached catheters were placed in a 5 ml plastic vial containing a cotton wad and sufficient saline to immerse and activate the pump. The catheter passed through a 0.5 ml air space at the top of the fluid in the tube, the terminal end being submerged in the saline. The tubes were sealed with a plastic cap covered with parafilm. They were shaken at 37° in a metabolic shaking incubator (Dubnoff E.C.A.) at 80-100 r.p.m. for periods up to 8 days. Pumps were removed from the tubes on the 8th day after shaking; catheters were examined for precipitates by eye and residual contents were removed and centrifuged in microtubes to evaluate the precipitate.
# [2] = target: T1, single component neutral pork zinc insulin (Sus scrofa, UniProt P01315); assay: Controlled shaking of zinc insulin solutions in test tubes, optical density at 600 nm; assay type: physicochemical; conditions: for Optical Density ± 1 × SE: zinc insulin 50 U/ml, OD at 600 nm
# T1 construct: single component, neutral, pork, zinc-insulin (U.500 regular Iletin II., Eli Lilly & Company); purchased Eli Lilly & Company U.500 regular Iletin II
# Method: In vitro testing of single component neutral pork zinc insulin was undertaken with a number of added agents. Solutions at about neutral pH and at acid pH were tested. In addition, some testing was also undertaken with Na insulin.
# The tests were conducted using plastic tybes (5 ml test tubes, Sarstedt, sealed by plastic caps covered with paraffin) each containing 2 ml of the insulin solutions noted below. The tubes were continuously agitated in a metabolic shaking incubator (Dubnoff E.C.A. Co.) at 60 to 80 r.p.m. and 37° C. for periods up to sixteen days.
# The zinc insulin solutions were prepared by appropriate dilutions of highly concentrated (500 U/ml) single component, neutral, pork, zinc-insulin (U.500 regular Iletin II., Eli Lilly & Company). The unbuffered diluting fluid contained glycerin, 16 mg/ml, and phenol, 2 mg/ml of distilled water (Eli Lilly & Company). […] Final insulin concentration in all solutions was 50 U/ml (2 mg/ml).
# Insulin solutions with amino acid added were prepared by addition of the dry amino acids (Sigma Company) to the neutral zinc or sodium insulin solutions. Final concentration of the amino acid additives was 7 mg per ml of insulin solution. pH was adjusted, when necessary, to 7.5 for neutral insulin mixtures and to 3.3-3.5 for acid insulin mixtures.
# Several non-amino carboxylic acids, i.e., lactic acid, acetic acid, and citric acid, were added under the same conditions of concentration and pH as described for the amino acids.
# The various insulin solutions, both as made up without additives and with additives, were shaken as noted above for up to sixteen days, at which time the solutions were examined with an optical densitometer at a wave length 600 nm. The optical density (OD) of each solution was an indication of the amount of aggregation present after the shaking period. The higher the optical density, the greater the aggregation in that solution.
# T1 sequence (P01315 25-54 limits assumed): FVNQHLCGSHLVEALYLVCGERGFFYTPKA
# T1 sequence (P01315 88-108 limits assumed): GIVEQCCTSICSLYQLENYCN
substance,measurement,setting,value
"Neutral Single Component Zinc Insulin: single component, neutral, pork, zinc-insulin (U.500 regular Iletin II, Eli Lilly & Company), diluted, no agent added",Number of Pumps with Aggregates in Catheter,"[1]; pH 3.3, 120 U/ml, of 6 pumps",4
same,Number of Pumps with Precipitates,"[1]; pH 3.3, 120 U/ml, of 6 pumps",0
same,Number of Pumps with Aggregates in Catheter,"[1]; pH 7.4, 120 U/ml, of 3 pumps",3
same,Number of Pumps with Precipitates,"[1]; pH 7.4, 120 U/ml, of 3 pumps",3
same,Time at which aggregates appeared,"[2]; acidified (pH 2.9-3.3), unbuffered",by the fourth day
same,Aggregation of acidified unbuffered insulin solution (in words),"[2]; pH 2.9-3.3, unbuffered, through day 16",the aggregation was as great through day 16 as unacidified solutions
same,Optical Density ± 1 × SE,"[2]; pH 2.9-3.3, shaken 16 days at 37° C.",0.181 ± 0.03
same,Optical Density ± 1 × SE,"[2]; pH 7.4, shaken 16 days at 37° C., higher OD = greater aggregation",0.603 ± 0.08

# From patent publication US4371523A, “Reducing the aggregation of insulin in solution” (The Regents of the University of California, priority 1980, dated 1983)
